Measurements from US20160282364A1, “ASSAY FOR INSULIN-DEGRADING ENZYME (IDE) INHIBITORS” (PRESIDENT AND FELLOWS OF HARVARD COLLEGE, priority 2013, published 2016).

Biological target: IDE (UniProt P14735)
Assay: enzyme inhibition (double inhibitor plot); 1x IC50

**Q.** Which IC50 does the source give for Bacitracin here?
**A.** 10 µM
